Four molecules from patent publication US20220306751A1 (MYTHIC THERAPEUTICS, published 2022) can be followed below.

Experiment [1] deals with T1, cell surface CD123 on EOL-1 cells (CD123+) (human, UniProt P26951 19-378).
T1 construct: EOL-1 cells, DSMZ ACC 386
Kind of experiment: flow cytometry on EOL-1 (CD123+) cells, anti-human IgG Alexa Fluor 488; Example 16 calls the fitted value KD. As for the experimental part:
100,000 EOL-1 cells (DSMZ ACC 386) were seeded per well in a 96 well deep well plate. IMGN632 and a pH engineered antibody variant were serially diluted at a 1:3 dilution in ice cold FC buffer (phosphate buffered saline (PBS), pH 7.4+2 mM ethylenediaminetetraacetic acid (EDTA)+2% (v/v) HI FBS). The plates were spun at 2,000 RPM for 2 minuets, the supernatant was removed, and 100 μL of diluted antibody was added to each well with final concentration ranging from 60 nM to 1 pM and incubated for 2 hours at 4° C. Post incubation, the cells were spun at 2000 rpm for 2 min and supernatant was discarded. Cells were washed twice with 500 μL of ice-cold FC buffer and resuspended with […]. The cells were then transferred from the deep well plate to 96 well round bottom plate, spun at 2000 rpm for 2 min and incubated with 100 μL of 10 μg/mL Alexa Fluor 488 conjugated goat anti-human IgG secondary antibody (ThermoFisher Scientific, A11013) for 30 min. Post incubation, cells were washed with FC buffer and resuspended in 100 μL of FC buffer to read on a BD Accuri C6 flow cytometer. Binding affinity was measured as a dissociation constant KD by GraphPad Prism assuming Michaelis-Menten binding kinetics.
On the technique in general: A flow cytometer gives signals particle by particle.

Experiment [2] has as its target T2, CD123 protein (R&D Systems Catalog No. 301-R3-025/CF) (Homo sapiens (Human), UniProt P26951 19-305).
T2 construct: Bought protein
T2 sequence: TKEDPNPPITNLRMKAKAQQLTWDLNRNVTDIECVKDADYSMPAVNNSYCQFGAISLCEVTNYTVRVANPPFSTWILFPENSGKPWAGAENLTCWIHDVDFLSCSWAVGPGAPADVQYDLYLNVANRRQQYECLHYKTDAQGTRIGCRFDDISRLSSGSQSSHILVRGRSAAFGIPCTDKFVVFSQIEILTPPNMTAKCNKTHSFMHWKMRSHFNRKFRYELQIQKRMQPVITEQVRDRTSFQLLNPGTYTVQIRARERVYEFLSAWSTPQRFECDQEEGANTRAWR
Kind of experiment: BLI, IgG on anti-human Fc sensor, pH 7.4 and pH 5.4. In general terms: Biolayer interferometry detects binding as a change in optical thickness at a sensor tip.

What is called IC50 is the concentration at which inhibition is half-maximal. Read a high IC50 as weaker potency.

B1: IMGN632 (antibody, V domains shown)
VH: QVQLVQSGAEVKKPGASVKVSCKASGYIFTSSIMHWVRQAPGQGLEWIGYIKPYNDGTKYNEKFKGRATLTSDRSTSTAYMELSSLRSEDTAVYYCAREGGNDYYDTMDYWGQGTLVTVSS
VL: DIQMTQSPSSLSASVGDRVTITCRASQDINSYLSWFQQKPGKAPKTLIYRVNRLVDGVPSRFSGSGSGNDYTLTISSLQPEDFATYYCLQYDAFPYTFGQGTKVEIK
notes: IgG from Expi293 supernatant; also called MYT1251; starting ABPC
B1 displayed an IC50 in experiment [1] of 0.034 nM.

B2: MYT2758 (antibody, V domains shown)
VH: QVQLVQSGAEVKKPGASVKVSCKASGYIFTSSIMAWVRQAPGQGLEWIGYIKPYNDGTKYNEKFKGRATLTSDRSTSTAYMELSSLRSEDTAVYYCAREGGNDYYDHMDYWGQGTLVTVSS
VL: DIQMTQSPSSLSASVGDRVTITCRASQDINSYLSWFQQKPGKAPKTLIYRVNRLVDGVPSRFSGSGSGNDYTLTISSLQPEDFATYYCLQYDAFPYTFGQGTKVEIK
notes: IgG
In experiment [1], B2 showed an IC50 of 0.051 nM.

B3: MYT5476 (antibody, V domains shown)
VH: EVQLLESGGGLVQPGGSLRLSCAVSDYSITSGYYWNWIRQAPGKKLEWMGYISYDGSNNYNPSLKNGRITISRDTSKNTFYLQMNSLRAEDTAVYYCARGEHFYFDSWGQGTLVTVSS
VL: EIVLTQSPGTLSLSPGERATLSCKSSQSLFFGSTQKNYLAWYQQKPGQAPRLLIYWASTRESGIPDRFSGSGSGTDFTLTISRLEPEDFAVYYCQQYYNYPWTFGQGTKLEIK
notes: IgG
As for B3, the binding result in experiment [2] is “no binding (tested: 50 nM)”.

B4: MYT5495 (antibody, V domains shown)
VH: EVQLLESGGGLVQPGGSLRLSCAVSDYSITSGYYWNWIRQAPGKKLEWMGYISYDGSNNYNPSLKNGRITISRDTSKNTFYLQMNSLRAEDTAVYYCARGEGFYFDSWGQGTLVTVSS
VL: EIVLTQSPGTLSLSPGERATLSCKSSQSLFFGSTQKNYLHWYQQKPGQAPRLLIYWASTRESGIPDRFSGSGSGTDFTLTISRLEPEDFAVYYCQQYYNYPWTFGQGTKLEIK
notes: IgG
On to B4, for which the binding result in experiment [2] is given as “no binding (tested: 50 nM)”.
